Test results published in US20240029824A1 (University of Washington, published 2024).
Values belong to the binder of their own block, whether it stands above or below them.

Tests used:
[1] = target: T1, C4-DHT03-01 chain B; test: chains mixed and annealed, SEC, negative stain EM; A4B4C4 ring
T1 construct: four copies in the A4B4C4 ring; also called C4-DHT03-01-DHR82 chain B
T1 chain: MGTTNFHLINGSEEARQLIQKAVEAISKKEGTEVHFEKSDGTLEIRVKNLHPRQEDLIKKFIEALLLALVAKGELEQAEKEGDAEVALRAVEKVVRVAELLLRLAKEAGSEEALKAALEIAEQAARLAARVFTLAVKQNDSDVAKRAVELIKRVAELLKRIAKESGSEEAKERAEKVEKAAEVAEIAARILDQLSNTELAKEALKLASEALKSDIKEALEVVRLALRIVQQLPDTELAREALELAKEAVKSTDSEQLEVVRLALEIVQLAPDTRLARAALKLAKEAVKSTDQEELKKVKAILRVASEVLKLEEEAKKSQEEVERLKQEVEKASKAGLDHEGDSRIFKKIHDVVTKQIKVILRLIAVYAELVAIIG

[2] = target: T2, DHT03 chain C (SEQ ID NO: 59); test: as above
T2 chain: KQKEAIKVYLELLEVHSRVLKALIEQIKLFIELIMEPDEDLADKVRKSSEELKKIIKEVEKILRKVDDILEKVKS

[3] = target: T3, DHT03_3arm_A21/B21/C82 chain C; test: three components purified separately, mixed equimolar, heat annealed, SEC, negative stain EM
T3 construct: also called chain C DHR82 fusion; chain C of C3-DHT03-01-DHR82 and C4-DHT03-01-DHR82
T3 chain: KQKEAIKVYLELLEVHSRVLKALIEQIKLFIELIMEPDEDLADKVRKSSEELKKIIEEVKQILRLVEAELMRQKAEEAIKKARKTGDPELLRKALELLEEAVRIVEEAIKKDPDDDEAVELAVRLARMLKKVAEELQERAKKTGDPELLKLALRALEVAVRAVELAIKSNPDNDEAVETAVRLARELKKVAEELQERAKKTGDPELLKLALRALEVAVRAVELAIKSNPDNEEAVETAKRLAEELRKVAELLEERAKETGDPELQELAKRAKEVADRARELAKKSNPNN
Excerpt: As is evident from the images in FIGS. 4c and 4d, the cyclic structures retain one of the original heterotrimer helical hairpins in each corner; these short, outward facing protein chains provide fusion points for further elaboration of higher order symmetric assemblies. To evaluate the potential for building up larger nanostructures using the rings as hubs, and explore the modularity of the designed building blocks, we replaced the original outward facing chain C helical hairpin with the chain C DHR82 fusion (as it was the largest 4-repeat DHR) from FIG. 3d, row 8. This was done for two designs (C3-DHT03-01 and C4-DHT03-01), with chain C replaced by fusion C82 through expressing and purifying the three components separately, mixing them in equal molar quantities, and reconstituting using heat annealing.
An AKTA PURE FPLC system was used. Heterotrimer bases, arm extensions, coiled coil C2 rings, and all constructs mentioned in SI were passed through a Cytvia Superdex S200 Increase 10/300 GL column, while C3/C4 rings made from DHT03 were passed through a Cytvia Superdex S6 Increase 10/300 GL column. The mobile phase was TBS (25 mM Tris-HCl pH 8.0, 100 mM NaCl or 25 mM Tris-HCl pH 8.0, 150 mM NaCl). Samples ran at a flow rate of 0.75 ml/min and fractions were collected at 0.5 ml.

[4] = target: T4, DHT01-4arm-02 chain B; test: SEC and SDS-PAGE; chains of one ABC heterotrimer
T4 construct: Strep-tag II was added to the N-terminus of chain B of DHT01 arms; also called C2-DHT01-04 chain B
T4 chain: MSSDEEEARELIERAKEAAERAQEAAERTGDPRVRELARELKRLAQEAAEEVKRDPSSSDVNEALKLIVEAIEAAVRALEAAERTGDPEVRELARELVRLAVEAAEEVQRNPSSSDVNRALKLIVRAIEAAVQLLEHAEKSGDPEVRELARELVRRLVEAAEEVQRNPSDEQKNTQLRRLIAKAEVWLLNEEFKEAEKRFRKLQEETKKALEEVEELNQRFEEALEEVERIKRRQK

[5] = target: T5, DHT01-4arm-01 chain B; test: co-expression, pull-downs, SEC, native MS, SAXS; chains of one ABC heterotrimer
T5 construct: Strep-tag II was added to the N-terminus of chain B of DHT01 arms
T5 chain: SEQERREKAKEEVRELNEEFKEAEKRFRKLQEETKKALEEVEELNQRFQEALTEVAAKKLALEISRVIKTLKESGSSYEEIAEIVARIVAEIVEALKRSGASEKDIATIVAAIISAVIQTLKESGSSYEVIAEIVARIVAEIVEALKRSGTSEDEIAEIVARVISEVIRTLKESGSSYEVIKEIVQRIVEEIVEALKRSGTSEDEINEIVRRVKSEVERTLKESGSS

[6] = target: T6, DHT01-4arm-01 chain C; test: as above
T6 construct: also called DHT01-4arm-02 chain C; C2-DHT01-01 chain B
T6 chain: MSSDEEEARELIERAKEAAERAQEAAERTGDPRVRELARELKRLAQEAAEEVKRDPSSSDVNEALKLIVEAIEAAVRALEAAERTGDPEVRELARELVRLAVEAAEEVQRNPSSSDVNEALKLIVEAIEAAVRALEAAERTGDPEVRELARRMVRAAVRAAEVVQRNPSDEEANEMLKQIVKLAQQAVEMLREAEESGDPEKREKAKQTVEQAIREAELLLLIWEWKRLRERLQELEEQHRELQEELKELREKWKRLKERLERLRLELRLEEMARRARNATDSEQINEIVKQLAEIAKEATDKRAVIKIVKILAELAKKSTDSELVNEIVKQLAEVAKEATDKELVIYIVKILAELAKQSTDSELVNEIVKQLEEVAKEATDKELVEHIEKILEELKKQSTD

[7] = target: T7, C3-DHT03-02 chain B; test: chains mixed and annealed, SEC, negative stain EM; A3B3C3 ring
T7 construct: three copies in the A3B3C3 ring
T7 chain: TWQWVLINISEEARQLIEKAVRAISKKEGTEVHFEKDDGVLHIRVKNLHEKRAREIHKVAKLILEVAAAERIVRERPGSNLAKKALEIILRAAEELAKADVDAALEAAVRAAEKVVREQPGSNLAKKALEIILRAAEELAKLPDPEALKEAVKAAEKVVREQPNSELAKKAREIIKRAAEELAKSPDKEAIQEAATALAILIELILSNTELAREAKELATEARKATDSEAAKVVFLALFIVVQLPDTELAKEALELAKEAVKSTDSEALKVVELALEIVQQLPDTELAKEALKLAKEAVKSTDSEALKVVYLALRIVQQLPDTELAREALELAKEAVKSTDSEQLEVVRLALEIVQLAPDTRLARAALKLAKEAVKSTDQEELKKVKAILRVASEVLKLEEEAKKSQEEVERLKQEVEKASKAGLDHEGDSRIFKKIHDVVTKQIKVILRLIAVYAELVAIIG

[8] = target: T2, DHT03 chain C (SEQ ID NO: 59); test: as above
[9] = target: T4, DHT01-4arm-02 chain B; test: bicistronic expression, SAXS, negative stain EM; A2B2 ring
[10] = target: T8, C3-DHT03-01 chain B; test: chains mixed and annealed, SEC, negative stain EM; A3B3C3 ring
T8 construct: three copies in the A3B3C3 ring; also called C3-DHT03-01-DHR82 chain B
T8 chain: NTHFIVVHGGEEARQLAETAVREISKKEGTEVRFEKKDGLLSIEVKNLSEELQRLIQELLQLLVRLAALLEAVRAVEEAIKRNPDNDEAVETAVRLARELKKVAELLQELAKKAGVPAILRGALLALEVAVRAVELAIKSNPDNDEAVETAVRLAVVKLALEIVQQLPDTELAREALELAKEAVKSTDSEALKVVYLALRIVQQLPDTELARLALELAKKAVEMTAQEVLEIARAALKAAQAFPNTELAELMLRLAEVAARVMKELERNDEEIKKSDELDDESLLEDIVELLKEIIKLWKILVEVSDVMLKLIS

binding result [1]: binds | binding result [2]: binds | binding result [3]: binds
B1: C4-DHT03-01 chain A (designed binder)
chain: MGNTHFIVVHGGEEARQLAETAVREISKKEGTEVRFEKKDGLLSIEVKNLSEELQRLIQELLQLLVRLAALLEAVRAVEEAIKRNPDNDEAVETAVRLARELKKVAELLQELAKKAGVPAILRGALLALLVAARAVALAALANSKNDEAREALKRLAEELKKVAKELKERAKKTKDSELERLALAAELMALAAEIVAQLANTELAREALELATEAIKASDDEALRVVKLALRIVQQLPDTELARLALELAKKAVEMTAQEVLEIARAALKAAQAFPNTELAELMLRLAEVAARVMKELERNDEEIKKSDELDDESLLEDIVELLKEIIKLWKILVEVSDVMLKLIS
notes: four copies in the A4B4C4 ring; also called C4-DHT03-01-DHR82 chain A

binding result [4]: binds | binding result [5]: binds | binding result [6]: binds
B2: DHT01-4arm-01 chain A (designed binder)
chain: DEEEKLRESLEEQKKRVKEIEREHEEIREALKRLQQSVLRQAVRLAKLGDDSEMINRIVKDLAEQAKEATDKREVIKIVKALAELAKNSTDSELVNEIVKQLAEVAKEATDKELVIYIVKILAELAKQSTDSELVNEIVKQLEEVAKEATDKELVEHIEKILEELKKQSTD
notes: also called DHT01-4arm-02 chain A

binding result [7]: binds | binding result [8]: binds
B3: C3-DHT03-02 chain A (designed binder)
chain: SSIFLLSNVDESARQLAEELVREISKKEGTEVRFEKDDGFLTIEVKNLSEERLREIARALQLIVDVANAERVVRERPGSNLAKKALEIILRAAEELAKLTLEASLKAAQIAAELVVREQPGSNLAEKAKTIILQARAAELAIRIEEQLKDTELAKEAKELATEAIKAQDKEALKVVELALKIVQQLPDTELAKEALKLAKEAVKSTDSEALKVVELALEIVQQLPDTELAKEALELAEEAVKSTDSEALKVVKLALEIVQQLPDTELAREALELAKEAVKSTDSEALKVVYLALRIVQQLPDTELARLALELAKKAVEMTAQEVLEIARAALKAAQAFPNTELAELMLRLAEVAARVMKELERNDEEIKKSDELDDESLLEDIVELLKEIIKLWKILVEVSDVMLKLIS
notes: three copies in the A3B3C3 ring

binding result [9]: binds
B4: C2-DHT01-04 chain A (designed binder)
chain: DEEEKLRESLEEQKKRVKEIEREHEEIREALKRLQQSVLRQAVRLAKLGDDSEMINRIVKDLAEQAKEATDKREVIKIVKALAELAKNSTDRELINEIAKQLAEVAKEATDEELQRYIAKILIELAEQAIKEAERSLREGNPEKAREDVRLALELVRLLLEIAQALNLLEVLEEAARLAFEVARVAKEVGSPETARQARETAERLLEWAMKMIEEKAKKEKDRNDQSSDVNEAAKLIREAAEAAQRAREAASRTGDPEVKDLAWRMVEAALKAAAVVATNPSDEEANEMLKQIVKLAQQAVEMLREAEESGDPEKREKAKQTVEQAIREAELLLLIWEWKRLRERLQELEEQHRELQEELKELREKWKRLKERLERLRLELRLEEMARRARNATDSEQINEIVKQLAEIAKEATDKRAVIKIVKILAELAKKSTDSELVNEIVKQLAEVAKEATDKELVIYIVKILAELAKQSTDSELVNEIVKQLEEVAKEATDKELVEHIEKILEELKKQSTD
notes: two copies in the A2B2 ring

binding result [10]: binds | binding result [8]: binds | binding result [3]: binds
B5: C3-DHT03-01 chain A (designed binder)
chain: TTNFHLINGSEEARQLIQKAVEAISKKEGTEVHFEKSDGTLEIRVKNLHPRQEDLIKKFIEALLLALVAKGELEQAEKEGDAEVALRAVEKVVRVAELLLRLAKEAGSEEALKAALEIAEQAARLAKRVLELAEKQGDAEVALKAVLLVVIVAALLVKIAKESGSEEAKERATRVAREASRLADRVEELARKQNNEDVTLAAKVLKLAADIIAQLMNTELAEEAAQLATEALKATDREQLEVVRLALEIVQLAPDTRLARAALKLAKEAVKSTDQEELKKVKAILRVASEVLKLEEEAKKSQEEVERLKQEVEKASKAGLDHEGDSRIFKKIHDVVTKQIKVILRLIAVYAELVAIIG
notes: three copies in the A3B3C3 ring; also called C3-DHT03-01-DHR82 chain A
